Assay results: patent US20220289837A1 (VIB VZW, published 2022)

Assays:
[1] = target: Purified human wt-CFTR (His10-SUMO*-CFTRFLAG-EGFP), PKA phosphorylated (human, UniProt P13569 1-1480, PKA phosphorylated (sites not given)); assay: cell-based or functional assay
[2] = target: T1, 2PT-NBD1 (human CFTR nucleotide-binding domain 1, residues 387-646, with S492P, A534P, I539T) (human, UniProt P13569 388-646, biotinylated for the ELISA (sites not given)); assay: cell-based or functional assay
[3] = target: T1, 2PT-NBD1 (human CFTR nucleotide-binding …); assay: ITC, nanobody titrated into 2PT-NBD1 at 20 °C, one-site model
Protocol: (§1) Isothermal titration calorimetry (ITC) was used to characterize the thermodynamic parameters of the binding (FIG. 1e and FIG. 9). […] These KD values are similar to those measured for other in vivo matured camelid heavy-chain antibodies interacting with their ligands^{[20]}. The thermodynamic parameters of the interaction of nanobodies with 2PT-NBD1 were determined based on these ITC measurements (FIG. 1e and FIG. 9).
(§2) Interactions between nanobodies and 2PT-NBD1 was carried out on NanoITC system (TA Instruments) in 0.165 ml cells at 20° C., 300 rpm syringe stirring. Proteins were extensively dialyzed in 20 mM Hepes buffer pH 7.5, 150 mM NaCl, 10% (w/v) glycerol, 10% (w/v) ethylene glycol, 2 mM ATP and 3 mM MgCl₂ for 16 h at 4° C. Heat of dilution from control experiments of each nanobody titrated into buffer was subtracted from the titration into 2PT-NBD1. Data were integrated analyzed with Origin 7.0 software (Origin Lab Corp.).

[4] = target: T1, 2PT-NBD1 (human CFTR nucleotide-binding …); assay: ELISA, biotinylated 2PT-NBD1 on avidin-coated plate, T27 titrated
Source text: (§3) The location of these nanobodies completely overlaps (FIG. 11a) with that of the C-terminal regulatory extension (RE) observed in previously published structures of NBD1^{[25,26].} The RE segment, comprising residues 654-673 was removed from the 2PT-NBD1 construct used for immunization and characterization. While the functional role of the RE is still unclear, it has been described to be a very mobile domain^{[27]}. […] This is consistent with RE being a dynamic region of CFTR.
(§4) For dose-response assays, Nunc MaxiSorp 96-well plates (ThermoScientific), were coated with 5 μg/ml NeutrAvidin Biotin-Binding protein (ThermoScientific) overnight at 4° C. and blocked 2 h at room temperature (RT) with 2% milk in phosphate-buffered saline (PBS). Each new reagent addition was preceded by three washes with 200 μl of NBD1 buffer (20 mM HEPES pH 7.5, 150 mM NaCl, and 10% (w/v) glycerol, 10% (w/v) ethylene glycol, 2 mM ATP, 3 mM MgCl₂). Then, biotinylated purified NBD1 proteins at 5 μg/ml were immobilized 30 min at RT followed by 1 h RT incubation with 100 μl various concentrations (0-20 μg/ml) of purified nanobodies. […] 50 μl of 1-Step UltraTMB-ELISA (ThermoScientific) was used as a substrate for the peroxidase and intensity of the reaction was proportional to absorbance measured at 450 nm with SynergyMx (BioTek) after addition of 50 μl H₂SO₄ at 1M.

[5] = target: T2, 2PT-NBD1-RE (2PT-NBD1 with residues 387-678, containing the regulatory extension) (human, UniProt P13569 387-678, biotinylated for the ELISA (sites not given)); assay: ELISA, biotinylated 2PT-NBD1-RE on avidin-coated plate, T27 titrated
Source text: as §3, §4

[6] = target: T1, 2PT-NBD1 (human CFTR nucleotide-binding …); assay: isothermal titration calorimetry, nanobody titrated into 2PT-NBD1 at 20 °C, one-site model
Protocol: as §1, §2

[7] = target: T3, F508del-2PT-NBD1 (human, UniProt P13569 388-646, biotinylated for the ELISA (sites not given)); assay: ELISA, biotinylated F508del-2PT-NBD1 on avidin-coated plate, nanobody titrated, anti-His detection
T3 construct: also called F508del-2PT-NBD1 mutant
Protocol: (§5) (a) Nanobody binding to 2PT-NBD1 measured by ELISA. Biotinylated 2PT-NBD1 was immobilized on avidin-coated plates and incubated with increasing concentration of each nanobody. Binding of nanobody was followed by immunodetection of the His-tag (see Methods). Representative curve of 3 independent experiments is shown. Error bars represent the standard deviation (SD) of duplicates. Data were normalized to maximum signal for each nanobody separately. (b) Nanobody binding to F508del-2PT-NBD1 measured by ELISA as described in panel a. (c) Nanobody T4 binding to 2PT-NBD1 and F508del-2PT-NBD1. Data were normalized to maximum signal of T4 binding to 2PT-NBD1. (d) Nanobody T8 binding to 2PT-NBD1 and F508del-2PT-NBD1. Data were normalized to maximum signal of T8 binding to 2PT-NBD1.
(§6) For dose-response assays, Nunc MaxiSorp 96-well plates (ThermoScientific), were coated with 5 μg/ml NeutrAvidin Biotin-Binding protein (ThermoScientific) overnight at 4° C. and blocked 2 h at room temperature (RT) with 2% milk in phosphate-buffered saline (PBS). Each new reagent addition was preceded by three washes with 200 μl of NBD1 buffer (20 mM HEPES pH 7.5, 150 mM NaCl, and 10% (w/v) glycerol, 10% (w/v) ethylene glycol, 2 mM ATP, 3 mM MgCl₂). Then, biotinylated purified NBD1 proteins at 5 μg/ml were immobilized 30 min at RT followed by 1 h RT incubation with 100 μl various concentrations (0-20 μg/ml) of purified nanobodies. Signal detection was followed using His-tag specific antibody (Invitrogen, catalogue number: MA1-135, 1:3000 dilution) to detect the nanobodies and secondary antibody anti-mouse coupled to horse radish peroxidase (HRP) (Millipore, catalogue number: AP308P, 1:5000 dilution). 50 μl of 1-Step UltraTMB-ELISA (ThermoScientific) was used as a substrate for the peroxidase and intensity of the reaction was proportional to absorbance measured at 450 nm with SynergyMx (BioTek) after addition of 50 μl H₂SO₄ at 1M.

[8] = target: T1, 2PT-NBD1 (human CFTR nucleotide-binding …); assay: ELISA, biotinylated 2PT-NBD1 on avidin-coated plate, nanobody titrated, anti-His detection; column head 'pEC50 (M)'
Protocol: as §5, §6

[9] = target: T4, 2PT-F508del-CFTR expressed in BHK-21 cells (human, UniProt P13569 1-1480, I539T; S492P; A534P; F508del); assay: flow cytometry on permeabilised BHK-21 cells expressing 2PT-F508del-CFTR, anti-tag antibody and Alexa Fluor 488 secondary
T4 construct: Full-length F508del CFTR stabilized by the three point mutations; permeabilized cells in flow cytometry
Source text: Graph depicts one representative of at least three independent experiments. (FIG. 4F) Average median fluorescence (fold over negative control) for each of the three representative nanobodies as illustrated in (FIG. 4D) and (FIG. 4E). Quantification of at least 3 independent experiments (±SEM). (g) Immunoblot of CFTR from solubilized BHK-21 cells pulled-down with His-tagged nanobodies, including a non-CFTR nanobody as a control. Eluted nanobodies-CFTR complexes were separated by SDS-PAGE and presence of CFTR was detected with mAb 596 antibody after immunoblotting. Arrows indicate the mature (band C) and immature (band B) forms of CFTR. Representative of at least 3 independent experiments. (FIG. 4H) Flow cytometry analysis of nanobodies T2a, T8 and G3a on BHK-21 cells expressing 2PT-F508del showing increased labelling for T2a and G3a, but not T8. (FIG. 4I) Quantification of data illustrated in […]. Average of 3 independent experiments (±SEM).
Parental BHK-21 cells (ATCC; CCL-10) and cells stably overexpressing human wt-CFTR^{[43,44,47]} or 2PT-F508del-CFTR, as described above, were permeabilized with 0.01% n-Dodecyl-β-D-Maltopyranoside β-DDM—Inalco) at least for 2 h on ice. In the meantime, cells were incubated with 50 μg/ml nanobodies and DRAQ7 (0.3 μM—Biostatus) to monitor the permeabilization state. Nanobody binding was detected by using His-tag specific antibody (Invitrogen, catalogue number MA1-135, 1 μg/ml) or Myc-tag specific antibody (Invitrogen, catalogue number 13-2500, 2 μg/ml) and then anti-mouse-Alexa Fluor 488 (Invitrogen, catalogue number A11001, 1.3 μg/ml) at least for 30 min on ice. Cells were washed one time between each step by centrifugation (200×g for 5 min at 4° C.). All incubations (100 μl) and washes (1.5 ml) were performed in PBS with 6% fetal bovine serum (FBS) and 0.01%13-DDM on ice. Cells fluorescence was measured with Gallios Flow Cytometer (Beckman Coulter). Data were analyzed with Kaluza software.

[10] = target: T1, 2PT-NBD1 (human CFTR nucleotide-binding …); assay: ELISA, biotinylated 2PT-NBD1 on avidin-coated plate, D12 titrated
Source text: as §3, §4

[11] = target: T2, 2PT-NBD1-RE (2PT-NBD1 with residues …); assay: ELISA, biotinylated 2PT-NBD1-RE on avidin-coated plate, D12 titrated
Source text: as §3, §4

[12] = target: T5, Stabilized human CFTR (stab-CFTR: 2PT/ΔRI/R1048A_1172X) (human, UniProt P13569 1-1171, limits assumed); assay: cell-based or functional assay
[13] = target: T5, Stabilized human CFTR (stab-CFTR: …); assay: cell-based or functional assay; remark: listed apart in the source

T1 sequence (P13569 388-646 V470M/S492P/A534P/I539T limits assumed): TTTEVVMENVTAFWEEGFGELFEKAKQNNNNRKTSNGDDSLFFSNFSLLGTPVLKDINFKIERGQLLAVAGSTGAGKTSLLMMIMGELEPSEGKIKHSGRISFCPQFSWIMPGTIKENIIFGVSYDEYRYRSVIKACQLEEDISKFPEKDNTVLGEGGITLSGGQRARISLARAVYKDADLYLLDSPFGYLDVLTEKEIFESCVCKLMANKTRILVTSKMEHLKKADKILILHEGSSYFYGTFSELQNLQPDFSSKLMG
T3 sequence (P13569 other isoform, or with tags, fused parts or gaps limits assumed, stated change not applied): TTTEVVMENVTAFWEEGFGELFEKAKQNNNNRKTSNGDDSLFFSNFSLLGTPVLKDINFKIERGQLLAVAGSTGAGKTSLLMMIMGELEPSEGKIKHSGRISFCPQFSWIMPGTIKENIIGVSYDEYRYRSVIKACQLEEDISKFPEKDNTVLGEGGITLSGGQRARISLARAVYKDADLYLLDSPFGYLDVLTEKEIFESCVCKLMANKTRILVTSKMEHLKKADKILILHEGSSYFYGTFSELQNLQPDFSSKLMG
T5 sequence (P13569 other isoform, or with tags, fused parts or gaps R1048A R1048A limits assumed): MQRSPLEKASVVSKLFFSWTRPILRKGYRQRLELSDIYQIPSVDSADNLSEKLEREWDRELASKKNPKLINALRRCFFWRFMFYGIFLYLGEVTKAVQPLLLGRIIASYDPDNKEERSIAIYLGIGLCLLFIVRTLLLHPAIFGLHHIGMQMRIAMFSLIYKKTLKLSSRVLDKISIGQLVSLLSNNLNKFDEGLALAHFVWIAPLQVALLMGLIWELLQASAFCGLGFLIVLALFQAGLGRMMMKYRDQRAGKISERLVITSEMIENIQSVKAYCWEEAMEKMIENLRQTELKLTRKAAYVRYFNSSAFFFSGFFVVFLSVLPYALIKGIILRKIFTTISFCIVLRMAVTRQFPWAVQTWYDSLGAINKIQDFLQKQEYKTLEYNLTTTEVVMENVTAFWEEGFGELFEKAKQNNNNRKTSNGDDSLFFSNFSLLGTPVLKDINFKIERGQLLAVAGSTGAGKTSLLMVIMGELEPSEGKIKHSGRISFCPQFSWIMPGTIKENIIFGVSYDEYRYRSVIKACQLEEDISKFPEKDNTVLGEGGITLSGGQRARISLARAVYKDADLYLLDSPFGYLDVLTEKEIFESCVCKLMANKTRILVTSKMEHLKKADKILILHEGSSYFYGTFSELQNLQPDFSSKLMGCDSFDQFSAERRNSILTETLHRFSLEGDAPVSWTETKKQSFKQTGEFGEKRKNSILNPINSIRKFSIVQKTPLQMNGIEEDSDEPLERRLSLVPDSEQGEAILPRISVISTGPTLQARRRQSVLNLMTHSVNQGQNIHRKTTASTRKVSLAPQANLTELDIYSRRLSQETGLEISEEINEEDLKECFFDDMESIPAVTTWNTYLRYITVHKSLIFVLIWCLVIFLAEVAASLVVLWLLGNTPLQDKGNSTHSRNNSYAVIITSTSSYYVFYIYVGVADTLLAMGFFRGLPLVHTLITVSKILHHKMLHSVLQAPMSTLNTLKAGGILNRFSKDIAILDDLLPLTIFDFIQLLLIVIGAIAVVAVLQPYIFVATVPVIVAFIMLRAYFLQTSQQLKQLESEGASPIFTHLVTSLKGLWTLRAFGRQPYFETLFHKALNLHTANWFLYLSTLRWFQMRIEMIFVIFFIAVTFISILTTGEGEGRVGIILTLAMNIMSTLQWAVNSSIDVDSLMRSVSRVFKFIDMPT
Chain of Purified human wt-CFTR (His10-SUMO*-CFTRFLAG-EGFP), PKA phosphorylated (P13569 whole entry, the tested form may be a part): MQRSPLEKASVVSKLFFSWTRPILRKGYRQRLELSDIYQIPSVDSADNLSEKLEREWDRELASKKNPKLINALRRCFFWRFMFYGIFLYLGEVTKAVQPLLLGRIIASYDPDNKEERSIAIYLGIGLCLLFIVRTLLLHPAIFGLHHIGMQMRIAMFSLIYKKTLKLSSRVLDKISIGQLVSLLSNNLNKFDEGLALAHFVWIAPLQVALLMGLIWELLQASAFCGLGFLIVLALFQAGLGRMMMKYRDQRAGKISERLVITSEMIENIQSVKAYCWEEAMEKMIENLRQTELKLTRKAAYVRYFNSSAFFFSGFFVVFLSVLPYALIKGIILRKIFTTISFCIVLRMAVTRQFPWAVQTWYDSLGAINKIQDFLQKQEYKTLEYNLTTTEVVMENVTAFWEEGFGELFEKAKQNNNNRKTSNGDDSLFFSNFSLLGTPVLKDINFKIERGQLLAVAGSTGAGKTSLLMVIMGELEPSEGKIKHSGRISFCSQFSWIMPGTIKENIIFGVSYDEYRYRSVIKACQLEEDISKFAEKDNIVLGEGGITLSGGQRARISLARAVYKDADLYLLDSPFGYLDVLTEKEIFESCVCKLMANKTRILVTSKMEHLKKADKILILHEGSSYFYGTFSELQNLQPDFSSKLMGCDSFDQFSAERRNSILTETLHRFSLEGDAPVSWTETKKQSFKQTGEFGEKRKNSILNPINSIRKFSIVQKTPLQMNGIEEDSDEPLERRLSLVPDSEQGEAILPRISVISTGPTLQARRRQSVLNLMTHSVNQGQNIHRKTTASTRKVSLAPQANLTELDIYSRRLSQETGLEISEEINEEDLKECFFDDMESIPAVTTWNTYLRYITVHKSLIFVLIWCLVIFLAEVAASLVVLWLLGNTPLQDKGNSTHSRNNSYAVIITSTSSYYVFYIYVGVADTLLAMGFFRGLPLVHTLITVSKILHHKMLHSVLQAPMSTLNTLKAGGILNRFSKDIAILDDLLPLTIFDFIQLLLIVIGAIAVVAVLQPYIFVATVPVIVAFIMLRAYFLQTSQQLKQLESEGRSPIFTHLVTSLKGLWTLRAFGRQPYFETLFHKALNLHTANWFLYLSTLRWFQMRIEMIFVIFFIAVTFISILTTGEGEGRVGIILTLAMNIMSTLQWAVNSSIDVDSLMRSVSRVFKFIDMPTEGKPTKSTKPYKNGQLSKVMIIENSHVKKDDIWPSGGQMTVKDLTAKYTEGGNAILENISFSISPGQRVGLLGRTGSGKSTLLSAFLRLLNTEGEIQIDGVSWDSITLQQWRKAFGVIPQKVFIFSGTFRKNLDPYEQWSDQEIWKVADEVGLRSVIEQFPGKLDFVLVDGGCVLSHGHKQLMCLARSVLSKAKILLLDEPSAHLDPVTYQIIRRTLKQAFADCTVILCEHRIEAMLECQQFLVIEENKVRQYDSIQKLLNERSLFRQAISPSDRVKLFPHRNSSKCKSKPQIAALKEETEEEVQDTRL
T2 sequence (P13569 other isoform, or with tags, fused parts or gaps limits assumed): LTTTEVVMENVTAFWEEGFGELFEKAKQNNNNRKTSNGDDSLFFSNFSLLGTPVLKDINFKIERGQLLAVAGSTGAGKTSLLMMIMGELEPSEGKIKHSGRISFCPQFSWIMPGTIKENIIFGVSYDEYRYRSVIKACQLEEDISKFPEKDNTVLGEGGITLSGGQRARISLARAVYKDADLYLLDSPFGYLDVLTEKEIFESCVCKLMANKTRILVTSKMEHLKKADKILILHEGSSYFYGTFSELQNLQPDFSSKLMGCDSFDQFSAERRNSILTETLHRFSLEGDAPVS
T4 sequence (P13569 other isoform, or with tags, fused parts or gaps I539T/S492P/A534P/F508del): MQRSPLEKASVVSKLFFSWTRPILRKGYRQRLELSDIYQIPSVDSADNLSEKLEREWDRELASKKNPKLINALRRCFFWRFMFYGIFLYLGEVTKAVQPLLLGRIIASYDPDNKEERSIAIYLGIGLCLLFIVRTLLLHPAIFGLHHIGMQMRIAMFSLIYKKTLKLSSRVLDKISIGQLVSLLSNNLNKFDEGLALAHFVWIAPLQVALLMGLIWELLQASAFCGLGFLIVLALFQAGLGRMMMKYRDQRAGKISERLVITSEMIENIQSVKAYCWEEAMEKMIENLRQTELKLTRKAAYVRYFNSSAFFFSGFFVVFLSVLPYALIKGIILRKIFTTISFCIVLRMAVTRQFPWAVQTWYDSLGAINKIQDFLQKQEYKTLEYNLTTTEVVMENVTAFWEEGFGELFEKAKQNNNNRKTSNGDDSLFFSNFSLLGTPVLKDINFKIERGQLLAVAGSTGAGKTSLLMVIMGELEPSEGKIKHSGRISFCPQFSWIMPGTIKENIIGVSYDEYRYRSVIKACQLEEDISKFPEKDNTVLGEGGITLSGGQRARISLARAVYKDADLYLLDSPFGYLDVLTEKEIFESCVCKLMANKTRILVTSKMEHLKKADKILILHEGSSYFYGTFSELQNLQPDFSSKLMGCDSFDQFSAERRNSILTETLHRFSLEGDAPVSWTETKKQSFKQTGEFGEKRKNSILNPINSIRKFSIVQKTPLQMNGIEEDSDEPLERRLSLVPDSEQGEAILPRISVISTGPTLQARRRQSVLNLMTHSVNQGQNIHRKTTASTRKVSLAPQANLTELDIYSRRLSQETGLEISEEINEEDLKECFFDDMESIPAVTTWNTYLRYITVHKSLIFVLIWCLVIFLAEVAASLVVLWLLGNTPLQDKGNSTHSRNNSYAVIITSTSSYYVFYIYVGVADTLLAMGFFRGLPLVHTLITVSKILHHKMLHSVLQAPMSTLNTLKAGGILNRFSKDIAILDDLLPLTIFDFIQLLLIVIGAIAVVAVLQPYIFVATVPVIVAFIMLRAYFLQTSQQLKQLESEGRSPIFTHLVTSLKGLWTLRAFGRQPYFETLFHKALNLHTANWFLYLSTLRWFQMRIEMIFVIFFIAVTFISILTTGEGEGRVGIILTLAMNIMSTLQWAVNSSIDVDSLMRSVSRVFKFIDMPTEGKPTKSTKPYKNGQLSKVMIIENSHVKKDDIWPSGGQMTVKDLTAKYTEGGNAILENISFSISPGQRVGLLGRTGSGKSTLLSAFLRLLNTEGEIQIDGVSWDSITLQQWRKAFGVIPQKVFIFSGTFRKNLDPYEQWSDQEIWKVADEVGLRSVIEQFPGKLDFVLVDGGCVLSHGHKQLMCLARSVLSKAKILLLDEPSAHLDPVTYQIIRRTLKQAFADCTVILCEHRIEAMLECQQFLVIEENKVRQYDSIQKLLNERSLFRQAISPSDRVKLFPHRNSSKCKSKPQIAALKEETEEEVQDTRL

| ATPase activity (% of PKA-phosphorylated CFTR) [1] [%] | ΔG [3] [kcal/mol] | ΔH [3] [kcal/mol] | EC50 (read off the curve) [4] [nM] | EC50 (read off the curve) [5] [nM] | Kd [6] [nM] | EC50 (read off the curve) [7] [nM] | pEC50 [8] | binding result [9] | EC50 (read off the curve) [10] [nM] | EC50 (read off the curve) [11] [nM] | Binder | increase of Tm (thermal shift assay, DSF) [2] [°C] | thermostabilization (nanoDSF, Tm) [12] [°C] | Tm of stab-CFTR in complex with the nanobody (nanoDSF, first derivative of 350 nm fluorescence); 'stab-CFTR (51.4°C)', 'T4 (73.8°C)' alone [13] [°C] |
| --- | --- | --- | --- | --- | --- | --- | --- | --- | --- | --- | --- | --- | --- | --- |
| 30 | -10.2 | -12.1 | ~3 | ~3 | 25 | ~2 | 8.7 |  |  |  | Nanobody T27 (VHH, not shown: small tags and cut ends, Llama nanobody; also called NbT27; T27 Nb) VHH: QVQLQESGGGLEQPGGSLRLSCATSGVIFGINAMGWYRQAPGKQRELVATFTSGGSTNYADFVEGRFTISRDNAKNTVYLQMNGLRPEDTAVYYCHATVVVSRYGLTYDYWGQGTQVTVSS | 11.9 |  |  |
|  | -7.98 | -11.4 |  |  | 1100 | ~2000 | 5.8 | binds |  |  | Nanobody G3a (VHH, not shown: small tags and cut ends, Llama nanobody, non-stabilizing; also called Nb G3a; G3a Nb) VHH: QVQLQESGGGLVQAGGSLRLSCTASGRAFSWYVMGWFRQAPGKEREFVATVSGNGSRRDYADSVKGRFTISRDNAKNTVYLQMNSLKPEDTAVYYCAASSTYYYTDPEKYDYWGQGTQVTVSS |  |  |  |
| 50 |  |  |  |  |  | ~10 | 7.6 |  | ~50 | ~80 | Nanobody D12 (VHH, not shown: small tags and cut ends, Llama nanobody raised against 2PT-NBD1; produced in E. coli periplasm; also called Nb D12; D12 Nb) VHH: QVQLQESGGGLVQAGSSLRLACAATGSIRSINNMGWYRQAPGKQRGMVAIITRVGNTDYADSVKGRFTISRDNAKNTVYLQMNSLKPEDTATYYCHAEITEQSRPFYLTDDYWGQGTQVTVSS | 13.8 |  |  |
|  |  |  |  |  |  |  |  |  |  |  | Nanobody T4 (VHH, not shown: small tags and cut ends) VHH: QVQLQESGGGLVQAGGSLRLSCAASGSTFAIIAMGWYRQAPGKQRELVAVISTGDTRYADSVKGRFTISRDNAKNTVYLQMDSLRPEDTAVYYCNAAVQVRDYRNYWGQGTQVTVSS |  | 8 | 59.4 |
